The results in this text go back to paper PMC2917185 (Nature structural & molecular biology, 2010).

Usually Kd stands for the concentration at which binding is half-saturated. A low value points to tighter binding.

The target in experiment [1] is LHCP (light-harvesting chlorophyll a/b binding protein), fluorescein-labeled (UniProt P07371 38-269). The experiment in a line: fluorescence polarisation. A general note: Fluorescence polarisation rises when a labelled molecule tumbles more slowly, as on binding a larger partner.
Experiment [2] shares this target. The experiment in a line: fluorescence polarisation. This is another data set of the same source.

Changes are numbered by the printed parent chain. In names and notes the source's numbering stands. Several values for one entry are separate records, joined by “and”; a condition that tells them apart may be missing. Equal values may be shown once. Read-outs that look alike come from different tables or passages of the source.

B1: cpSRP (chloroplast signal recognition particle, cpSRP43 with cpSRP54) (complex)
chain 1: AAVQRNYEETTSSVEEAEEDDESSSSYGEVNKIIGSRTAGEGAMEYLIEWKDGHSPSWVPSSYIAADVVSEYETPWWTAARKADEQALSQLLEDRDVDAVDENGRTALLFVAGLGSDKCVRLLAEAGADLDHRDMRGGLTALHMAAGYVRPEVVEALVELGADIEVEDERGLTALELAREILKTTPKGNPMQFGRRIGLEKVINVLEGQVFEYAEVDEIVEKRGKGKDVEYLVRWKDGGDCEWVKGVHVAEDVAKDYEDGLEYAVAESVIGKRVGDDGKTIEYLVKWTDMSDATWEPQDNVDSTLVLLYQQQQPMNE
chain 2: EMFGQLTGGLEAAWSKLKGEEVLTKDNIAEPMRDIRRALLEADVSLPVVRRFVQSVSDQAVGMGVIRGVKPDQQLVKIVHDELVKLMGGEVSELQFAKSGPTVILLAGLQGVGKTTVCAKLACYLKKQGKSCMLIAGDVYRPAAIDQLVILGEQVGVPVYTAGTDVKPADIAKQGLKEAKKNNVDVVIMDTAGRLQIDKGMMDELKDVKKFLNPTEVLLVVDAMTGQEAAALVTTFNVEIGITGAILTKLDGDSRGGAALSVKEVSGKPIKLVGRGERMEDLEPFYPDRMAGRILGMGDVLSFVEKATEVMRQEDAEDLQKKIMSAKFDFNDFLKQTRAVAKMGSMTRVLGMIPGMGKVSPAQIREAEKNLLVMEAMIEVMTPEERERPELLAESPERRKRIAKDSGKTEQQVSALVAQIFQMRVKMKNLMGVMEGGSIPALSGLEDALKAEQKAPPGTARRKRKADSRKKFVESASSKPGPRGFGSGN
Take B1: the equilibrium dissociation constant (Kd) in experiment [1] was 76 nM and 128 nM.

B2: cpSRP-R161A (cpSRP assembled from cpSRP43-R161A and cpSRP54) (complex)
chain 1: B1 chain 1 with R105A
chain 2: B1 chain 2
B2: the Kd in experiment [1] stood at 1200 nM.

B3: cpSRP-Y204A (cpSRP assembled from cpSRP43-Y204A and cpSRP54) (complex)
chain 1: B1 chain 1 with Y148A
chain 2: B1 chain 2
In turn, B3 gave an equilibrium dissociation constant (Kd) in experiment [1] of over 5000 nM.

B4: cpSRP43 ΔCD2ΔCD3 (CD1–Ank4 fragment) (domain or fragment)
chain: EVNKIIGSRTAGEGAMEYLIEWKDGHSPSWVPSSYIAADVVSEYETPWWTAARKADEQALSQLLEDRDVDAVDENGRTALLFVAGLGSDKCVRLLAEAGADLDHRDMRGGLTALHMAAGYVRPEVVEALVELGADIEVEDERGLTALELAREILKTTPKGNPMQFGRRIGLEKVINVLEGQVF
In turn, B4 yielded a dissociation constant Kd in experiment [2] of over 10000 nM.
